This is an account of results in the supplement of paper PMC12764529.

± gives the half width of the 95% confidence interval.

A short description of data set [1]: folding stability dG unfold (combined trypsin and chymotrypsin); higher = more stable. The essentials:
(§1)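 Bayesian fitting of sequencing counts gave K50 for each design. Unfolding free energy followed by setting this against a sequence-predicted unfolded-state K50 and a shared folded-state K50, either per protease or with trypsin and chymotrypsin combined. The designs, under 80 residues and lacking cysteine, were digested in a PA-tagged cDNA display format at 11 threefold-diluted protease concentrations and without protease, and only those with AlphaFold2 dimer inter-PAE above 15 were kept.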

Data set [2] is described as follows: folding stability dG unfold from trypsin proteolysis; higher = more stable. In a few lines: as §1
The nature of data set [3]: folding stability dG unfold from chymotrypsin proteolysis; higher = more stable. The essentials: as §1

Regarding “SAGGMKTVIVRVRRDSPEVRKALEALRKAKPGEEVELTVKGKKIRIVKIEEVDGEYYVTVEIEEEEESAGGS [r16_404_TrROS_Hall]”, the “folding stability dG unfold” value worked out at 3.75 ± 0.093 kcal/mol in data set [1], 3.39 ± 0.074 kcal/mol in data set [2] and 3.96 ± 0.062 kcal/mol in data set [3].
Regarding “SAGGMKTVTIEYWGSLPDAVVLAKKAVEEAAKNKGKTVVTLYVWEGEPDENGVPRWKPLGKYVFVVDASAGG [r13_974_TrMRF]”, the results for the “folding stability dG unfold” value in data set [1], in data set [2] and in data set [3] were 3.19 ± 0.1 kcal/mol, 2.44 ± 0.092 kcal/mol and 3.477 ± 0.034 kcal/mol, respectively.
For “SAGGMKVATVTLLTRDPSSDRTFEVTVEVPDDIVEKGDIEEAIARAKQLAEERGYPILEVEVEVKEPPSAGG [r13_954_JUSTAS]” the same measures were 0.922 ± 0.12 kcal/mol, 1.13 ± 0.046 kcal/mol and 0.625 ± 0.12 kcal/mol.
In the case of “SAGGMKVEIEIEEEPETGKVKITIKIDDVEIEIEATEEEIEKLIEEIEKIKAEPKLTEDGKLVPVIGSAGGS [r8_332_TrMRF]”, the “folding stability dG unfold” value in data set [1] stood at 1.92 ± 0.3 kcal/mol; in data set [2], 1.94 ± 0.24 kcal/mol; in data set [3], 1.8 ± 0.29 kcal/mol.
Turning to “SAGGMKVEIIRKDGKKVTLEGMTLEELLALLPEGEEYVIKVEVTVVDEKTKKKETVELTFTVPVEDLSAGGS [r16_806_TrROS_Hall]”, the “folding stability dG unfold” value in data set [1] was 2.04 ± 0.075 kcal/mol; in data set [2], 1.18 ± 0.047 kcal/mol; in data set [3], 2.47 ± 0.053 kcal/mol.
Take “SAGGMKVEVEVDPETGELYLKIYFPETGEVALVKIDPKTKTAEVVGSTDFVKEALPELGINNPTLVPGSAGG [r13_511_TrMRF]”: the “folding stability dG unfold” value worked out at 1.43 ± 0.061 kcal/mol in data set [1], 1.06 ± 0.051 kcal/mol in data set [2] and 1.59 ± 0.088 kcal/mol in data set [3].
With “SAGGMKVEVVPGGGAVVVEIPFPPTPATARLVISFHPDGTVTADLEPHPELPAELRAKLVELARELLGSAGG [r13_139_TrMRF]”, the “folding stability dG unfold” value in data set [1] was determined as 2.07 ± 0.048 kcal/mol; in data set [2], 1.6 ± 0.02 kcal/mol; in data set [3], 2.31 ± 0.032 kcal/mol.
“SAGGMKVYKISFPNATVTYEEETGKVTINPPDGSTKVIEISPDISIEEVAKKLAEELGFTEATITPEPSAGG [r13_852_JUSTAS]”: the “folding stability dG unfold” value in data set [1] worked out at 1.48 ± 0.068 kcal/mol; in data set [2], 1.59 ± 0.095 kcal/mol; in data set [3] it was 1.36 ± 0.057 kcal/mol.
In the case of “SAGGMKVYKTPDKITIELTHPETGEKAKGTYTPSTGKMTITYPNKLTVTISVDSNGNLTPVEKKPLLSAGGS [r16_127_JUSTAS]”, the “folding stability dG unfold” value in data set [1] is 0.626 ± 0.069 kcal/mol; in data set [2], 0.592 ± 0.046 kcal/mol; in data set [3] it was 0.577 ± 0.1 kcal/mol.
On the same counts, the results for “SAGGMKYLIKIEVDGKEIEIEAESLEEAEELAKKLEEEGIEIEVKKIEIYELPEEEEEEEEEKKKKESAGGS [r8_336_TrROS_Hall]” are 1.85 ± 0.21 kcal/mol, 0.249 ± 0.11 kcal/mol and 2.24 ± 0.08 kcal/mol.
For “SAGGMKYVLKIEITFKKPSGPPEKKIILVEFDPDFPDIPLEEAAERVLNEIAPKYGDEAKVSEISPVSAGGS [r8_101_TrMRF]”, the “folding stability dG unfold” value in data set [1] amounted to 2 ± 0.13 kcal/mol; in data set [2] it was 1.3 ± 0.054 kcal/mol; in data set [3], 2.35 ± 0.066 kcal/mol.
As to “SAGGMLIVRITVDLTFPVIHPDNRPSLVSVPLPITLPFSTPEEARAFAEALSKLFDAPVSLEVLPPDGSAGG [r13_320_TrMRF]”, the “folding stability dG unfold” value in data set [1] turned out to be 4.16 ± 0.12 kcal/mol; in data set [2], 3.62 ± 0.13 kcal/mol; in data set [3] it was 4.4 ± 0.094 kcal/mol.
For “SAGGMLKFTDPKTGNEYTVTEYDPNTGVYLVTTTYPDGTTTTREFPGSLEDIVKHLEEEGYPTTVVGSAGGS [r16_748_JUSTAS]” the same measures were 3.24 ± 0.069 kcal/mol, 2.83 ± 0.12 kcal/mol and 3.38 ± 0.1 kcal/mol.
With “SAGGMLKIKVELFYPDGSTRTLPVPEEIQKEIVEALKKGEKIPEKPKKELEDIAKKEGYTIKIIELLSAGGS [r8_159_JUSTAS]”, the “folding stability dG unfold” value amounted to 1.3 ± 0.18 kcal/mol in data set [1], 0.751 ± 0.051 kcal/mol in data set [2] and 1.41 ± 0.11 kcal/mol in data set [3].
On to “SAGGMLLVEAPDGTTVEVTPEQAADLTPGAVVRHPSGDVWTYNPANDETVRIPWVSPAEVERAVAELSSAGG [r13_962_JUSTAS]”, for which the “folding stability dG unfold” value in data set [1] is -0.132 ± 0.043 kcal/mol; in data set [2] it was -0.0974 ± 0.038 kcal/mol; in data set [3], -0.361 ± 0.12 kcal/mol.
Take “SAGGMLPDTLKLAREIAKELGINRIEPLESGEVVLYLPEDKVIVIDTINGIPRVRIYNKDEWIEIPISAGGS [r16_296_TrMRF]”: the results for the “folding stability dG unfold” value in data set [1], in data set [2] and in data set [3] were 4.26 ± 0.15 kcal/mol, 3.65 ± 0.096 kcal/mol and 4.56 ± 0.08 kcal/mol, respectively.
On to “SAGGMLVRVRFRIVEPGTGEPFEFEALLFFGEDGSFELVFPDGTRLLFPPEARIEVLDAELLDPDEASAGGS [r16_223_TrMRF]”, for which the results for the “folding stability dG unfold” value in data set [1], in data set [2] and in data set [3] were 4.61 ± 0.2 kcal/mol, 3.96 ± 0.19 kcal/mol and 4.9 ± 0.11 kcal/mol, respectively.
Take “SAGGMLVTFTTPDGKTVTVEVDSLEEAKKVIAEKLGLPPDTVLDVTVTDPVTGEVTSETVTIPVPVPESAGG [r13_145_JUSTAS]”: the entries for the “folding stability dG unfold” value in data set [1], in data set [2] and in data set [3] were 3.96 ± 0.049 kcal/mol, 3.3 ± 0.09 kcal/mol and 3.99 ± 0.07 kcal/mol, respectively.
Take “SAGGMMKIRIEVENPKGEKKEIELSEEELERIKEALKEGKVLTEEELKKLIELAKEKGYKVKIVEIESAGGS [r8_159_TrROS_Hall]”: the “folding stability dG unfold” value in data set [1] turned out to be 2.09 ± 0.24 kcal/mol; in data set [2], 0.447 ± 0.077 kcal/mol; in data set [3], 2.37 ± 0.074 kcal/mol.
On the same counts, the results for “SAGGMMTLKITIVDEDGNEITIEVEMSIEELEELIKELFPGKKVKVVSVEEEPVEPGLVKVTIKIEKESAGG [r13_832_TrROS_Hall]” are 4.96 ± 0.33 kcal/mol, 3.6 ± 0.12 kcal/mol and 5.01 ± 0.16 kcal/mol.
For the sequence “SAGGMNLMIKIENNGEPITFMINSPEDAEEIASNLPELGYPIEVKKLEPQRNEDGNPMVMVEIRIKPSAGGS [r8_336_TrROS]”, the “folding stability dG unfold” value in data set [1] turned out to be 1.21 ± 0.23 kcal/mol; in data set [2], 0.763 ± 0.14 kcal/mol; in data set [3], 1.63 ± 0.15 kcal/mol.
In the case of “SAGGMPEEELTLIVRIKVYNPETGEEKEITLTITVKSEEELEKAKKLVEELEEKLKELGIKKVEIEILSAGG [r13_360_TrROS_Hall]”, the “folding stability dG unfold” value turned out to be 3.2 ± 0.26 kcal/mol in data set [1], 2.92 ± 0.25 kcal/mol in data set [2] and 3.37 ± 0.097 kcal/mol in data set [3].
Turning to “SAGGMPGEVVDISDVPPGATLYDPEGKSYGPVVDVRVTVGPDSVEITITFPDGTTRTITAPRDKIYILPSAG [r5_850_JUSTAS]”, the results for the “folding stability dG unfold” value in data set [1], in data set [2] and in data set [3] were 1.59 ± 0.14 kcal/mol, 1.83 ± 0.083 kcal/mol and 1.24 ± 0.065 kcal/mol, respectively.
Regarding “SAGGMPGIRPVLRIRARVRFRGPEREEEIEIELHPEALEAGLTAEELARLRAEELGYEVEIEEIEIESAGGS [r16_554_TrMRF]”, the entries for the “folding stability dG unfold” value in data set [1], in data set [2] and in data set [3] were 1.84 ± 0.1 kcal/mol, 1.26 ± 0.097 kcal/mol and 2.01 ± 0.068 kcal/mol, respectively.
Take “SAGGMPKDAPTTDLTITEIVTEPDPNSDTYIARVTTRLPDGTEIVYTLPIPADTTEEEVVERAKELLSSAGG [r13_578_JUSTAS]”: the “folding stability dG unfold” value was 2.12 ± 0.077 kcal/mol in data set [1], 1.78 ± 0.035 kcal/mol in data set [2] and 2.307 ± 0.018 kcal/mol in data set [3].
For “SAGGMPKVPVTYTVTFTLKPDGSTLTVTETFPVPEPGKPVTKEEIKQRLLDKLPPSYTITSITITRASAGGS [r16_407_JUSTAS]”, the “folding stability dG unfold” value in data set [1] amounted to 2.13 ± 0.051 kcal/mol; in data set [2] it was 1.86 ± 0.03 kcal/mol; in data set [3] it was 2.21 ± 0.026 kcal/mol.
Turning to “SAGGMPLEHIAEITEVRTFPDGRKEIRLLVEDPEVAEEGHPELREEMAELLRRLFEEEGLEVRVVPGESAGG [r13_243_TrMRF]”, the “folding stability dG unfold” value in data set [1] was determined as 0.2 ± 0.19 kcal/mol; in data set [2] it was 0.0715 ± 0.19 kcal/mol; in data set [3] it was 0.187 ± 0.18 kcal/mol.
For “SAGGMPLGITITETVTPTPDGSVVVTLTVSLPPDEPLTITFPISGETVSFPPDETITLKVTVPPGLSSAGGS [r16_56_JUSTAS]” the same measures were 1.4 ± 0.093 kcal/mol, 1.7 ± 0.09 kcal/mol and 0.953 ± 0.034 kcal/mol.
On to “SAGGMPLPDEKVNITITINYTLPGGKPKTITIPATNWTVEEANEKKKKVEEELKKVPPDPVEKDGKLLSAGG [r13_330_JUSTAS]”, for which the “folding stability dG unfold” value is -0.354 ± 0.21 kcal/mol in data set [1], -0.745 ± 0.19 kcal/mol in data set [2] and -0.281 ± 0.24 kcal/mol in data set [3].
For the sequence “SAGGMPLPFRITQWDPNTGKPVATFPAVYDPETGLVVITPPDGSKEVFDAPLEEIVEALPSNWTVEPSAGGS [r16_543_TrMRF]”, the “folding stability dG unfold” value in data set [1] is 0.083 ± 0.16 kcal/mol; in data set [2] it was 0.121 ± 0.096 kcal/mol; in data set [3], -0.0752 ± 0.48 kcal/mol.
As to “SAGGMPLRFRIEVYKTETYYDPSTGKEVTKVEPLPELEIEAPPNTPLEAILAALDLPEDYYISRIGVESAGG [r13_716_TrMRF]”, the figures for the “folding stability dG unfold” value in data set [1], in data set [2] and in data set [3] were 2.43 ± 0.049 kcal/mol, 2.06 ± 0.065 kcal/mol and 2.55 ± 0.026 kcal/mol, respectively.
Regarding “SAGGMPPENPAVVKVLAQKQKFEDLVKELKEKGIEAKLEKIEVVPETGKVTVTIKLPDGKEIVITIESAGGS [r8_277_JUSTAS]”, the “folding stability dG unfold” value was 1.33 ± 0.21 kcal/mol in data set [1], 1.62 ± 0.11 kcal/mol in data set [2] and 1.16 ± 0.064 kcal/mol in data set [3].
With “SAGGMPPVVTEHTVELNPPASATLEDVRAAAEEVAAAIRAAAPEAGVAEVTFTVDPSRGTVTITVTRPSAGG [r13_1011_JUSTAS]”, the “folding stability dG unfold” value in data set [1] was 0.442 ± 0.043 kcal/mol; in data set [2] it was 0.985 ± 0.018 kcal/mol; in data set [3] it was -0.925 ± 0.15 kcal/mol.
On the same counts, the results for “SAGGMPTYTITITSPETGELKELPPNISQTFDPNNVTYYTFTSEEEAKEAIKLIAPQNGWKVTITSSSAGGS [r8_131_JUSTAS]” are 0.89 ± 0.35 kcal/mol, 1.37 ± 0.22 kcal/mol and -0.14 ± 0.52 kcal/mol.
For the sequence “SAGGMPVGVARVRTEAGDKVLEFTVEVPADVGAVEIRVKLKPDPLTGEPVVEEILEVRTYRAPPDVELSAGG [r13_568_TrMRF]”, the “folding stability dG unfold” value in data set [1] was determined as 0.887 ± 0.055 kcal/mol; in data set [2], 0.84 ± 0.047 kcal/mol; in data set [3], 0.837 ± 0.075 kcal/mol.
As to “SAGGMPVLEREFTIPLPDGTPLRVTVRYFPGTGRALVTLRPVGTGEPLATVPLSELPPELRAALAEESAGGS [r8_32_TrMRF]”, the entries for the “folding stability dG unfold” value in data set [1], in data set [2] and in data set [3] were 2.9 ± 0.052 kcal/mol, 2.42 ± 0.063 kcal/mol and 3.102 ± 0.026 kcal/mol, respectively.
